# Assay results as given in publication PMC4858740 (2016).
# B1: HAdV-A18 CR1β (Fc fusion)
# chain: QTAERPLKVVAEAGHNVTLPHLLPGFNKTGHVTWLIEIPDYGSAPSNKFVFSGQKLCEFASKNLTWSFPQLIFKCDNYDITLFWLKIENSAIYNVKNTIEATESNIYYQLTVIQINPPNCIITSKYLTEDYCHITINCTNSRYPNKVIFNNVTRSYYGYAKGSSTLPNYFTTSFNVSGITKTFKHNYPFSELCTYPSSENFYNSKETVST
# B2: HAdV-F41 CR1β (Fc fusion)
# chain: AVPEKTLNNLVRVYALVGTNLSLDSMKTPQIDELTSLSWIKQEDNPNKNLQSFFFIGQKLCEVTKDKITVFNYYPLEFSCANVTLYLYNLKTDDSGLYNGKAHTKELEHNTYVRLYVIDIPPPKCDITSRYLGIQATGEDYCLIEINCTNSKYPAVVKFNGRQSNFYHYVSENGNKELPNFYETHITVNGTHKSFHFNYPFNDLCQTTSALQYNDNVQ
# B3: HAdV-D51 E3/49K (Fc fusion)
# chain: LLESKVVKIPYGSTYVLVGPRDPPVQWFGGGDFTMFCNGSKTHLQNIRHTCNEQNLTLLSVGYGHRGDYYGFRHDNTGRKHYKVIIEAPPPVTRKPLSEIKYVNVTMGQNLTLSGPPGTPVTWHGEGHKLCEGKNVFYRELNHTCTEKDLILLFVNRTHNGPYIGYNKEGTDREHYEVSVLDLMPIAGQGLDSKNKEQKIPPKRKSKDKVQEVNFPTGTDQTLIGPPGQKIDWHVSSNDGQFKKLCETKDGKHSCHGRNITIFNISRADEGSYYGSSHDGSSHYKVTVYDKSSFGKAKIKIDPYTTKGTTTENYEFELQQGNDESDDQKQIPSTT
# B4: HAdV-D28 E3/49K (Fc fusion)
# chain: QAVHVNLEICYGCNGTLIGPPKTPVEWYDGRGHKLCAGTDTFRKELNHTCNLQNMTLTFVNLTHKGTYYGFGSDNKNSRVYQVTIKPPVLTTRRPLLKPEDVVITKGNNKTLVGPPDTPVDWYDGSGHKLCKGKEVHYPELNHTCNEQNLTLIFVNATFKGTYYGFRKDGTDKKEYRVTIDDLYAKQLKQEKDEKPRSGHDKQKSKSQERQNPKTEERHEHRDVVKEVSFRTGTNQTLVGPPGSNVDWLKIGNGGTFSELCKGDDKHYSCNSQNLTIINVTRSDEGSYYGSNDDSAHYRVSVYDPVQKKRVMKIQPHTTKTTTEGTTKSSTNESDENFALQQGNNGENNQSDETNIPS
# B5: HAdV-D58 E3/49K (Fc fusion)
# chain: SQAGFHTINATWWANITLVGPSDTPVTWYDKQGMQFCDGNTVKNPQIRHECNEQNLTLIHVNKTHERTYMGYNRQSTHKEDYKVIVIPPPPATVKPQSGPEYVYVNMGENKTLVGPPGIPVTWYDGEGNKFCDGEKVEHAEFNHTCDVQNLTLLFINLTHDGAYLGYNHQGTKRTWYEVVVTDGFPKSGEMKIEDQSRQTEQKQTGQKQNEHKQGGQKQEGQKETSQKKANDKQKATHRRPSKLKPHTPEAKLITVSSGSNLTLLGPDGKVTWYDDDLKRPCEPGYKLNCKCDNQNLTLINVTKLYEGVYYGTNDGGNGKRYRVKVNTTNSQNVKIQPYTRPTTPDQKHRFELQIDYNQDNDKIPSTT
# B6: HAdV-D24 E3/49K (Fc fusion)
# chain: GIHIINATWWDNITLVGPSDTPVTWYDGKGLQFCDGSTVKNPQIRHTCNDQNLTLIHVNKTHERTYMGYRHDSKGKVDYKVTVIPPPPATVKPQPDPENVFVYMGNNVTLVGPPGIPVSWYYHNGTQFCDGDKIIHPEFNHTCDKQNLTLLFVNFTHDGGYLGFNYKGTQRIQYEVIVLDRFPNSGQMKIEEQSEETEQKHTEHNKAGQKQGIDTNQKKANNRQKPSQRPSRRRPTNTPETKQLTVSIGSNLTLVGPDGKVTWYDGDLKRPCEEQNYRLPHQCSAQNLTLINVTKSHEGTYYGTNDKDESKRYRVKVNTTNSQAVKINPYTRPTTPDQKHRFELQIENNANDEESKIPSTT
# B7: HAdV-D37 E3/49K (Fc fusion)
# chain: GFHTINATWWANITLVGPPDTPVTWYDTQGLWFCNGSRVKNPQIRHTCNDQNLTLIHVNKTYERTYMGYNRQGTKKEDYKVVVIPPPPATVKPQPEPEYVFVYMGENKTLEGPPGTPVTWFNQDGKKFCEGEKVLHPEFNHTCDKQNLILLFVNFTHDGAYLGYNHQGTQRTHYEVTVLDLFPDSGQMKIENHSEETEQKNDEHHNWQKQGGQKQGGQKTNQTKVNDRRKTAQKRPSKLKPATIEAMLVTVTAGSNLTLVGPKAEGKVTWFDGDLKRPCEPNYRLRHECNNQNLTLINVTKDYEGTYYGTNDKDEGKRYRVKVNTTNSQSVKIQPYTRQTTPDQEHKFELQFETNGNYDSKIPSTT
# B8: HAdV-D19a E3/49K (Fc fusion)
# chain: GFHTINATWWANITLVGPPDTPVTWYDTQGLWFCNGSRVKNPQIRHTCNDQNLTLIHVNKTYERTYMGYNRQGTKKEDYKVVVIPPPPATVKPQPEPEYVFVYMGENKTLEGPPGTPVTWFNQDGKKFCEGEKVLHPEFNHTCDKQNLILLFVNFTHDGAYLGYNHQGTQRTHYEVTVLDLFPDSGQMKIENHSEETEQKNDEHHNWQKQGGQKQGGQKTNQTKVNDRRKTAQKRPSKLKPATIEAMLVTVTAGSNLTLVGPKAEGKVTWFDGDLKRPCEPNYRLRHECNNQNLTLINVTKDYEGTYYGTNDKDEGKRYRVKVNTTNSQSVKIQPYTRQTTPDQEHKFELQFETNGNYDSKIPSTT
# B9: HAdV-D9 E3/49K (Fc fusion)
# chain: GIINLNVSWGMNLTLVGPSDLPVTWYDGKGMQFCDGNTIKNPQIKHSCNQQNLTLLNADKSHERTYLGYRHDSKGKVDYKVTVIPPPPATRKPLSEPHYVTVTMGDNITLVGPSDLPVTWYDGEGNKFCDGEKVEHAEFNHTCNIQNLTLLFVNLTHNGAYIGYNKDGSDRELYEVSVKTLFQNGAGQSKVEQGNKGKPNTAQSGGKKTKTEHRNQSPKRKSTNNLQPTQLYVRPFTNVSLTGPPNGKVTWYDGELNDPCEQKYKLRTFCNQQNLTLINVSSTYDGIYYGTDEKDKANRYRIKVNTTNHKTVKIKPHTREPPAVQEKQFELQDAETDENESKIPSAT
# B10: HAdV-D47 E3/49K (Fc fusion)
# chain: EAETVIVDVKSGTNHTLEGPRKTPVQWYGGADFIMYCNGSKIHHKELNHTCSIQNITLTFINRTHHGTYYGFASDNQNSKVYHVRVDLEPPRPRATLAPPQDITIKYGSNRTLQGPNVTPVSWYDGEGNRFCDGDEIDHPELNHTCNAQNLTLLFVNETHERTYYGVSGDWKQRNEYDVTVIKTQNHKNAMQQKVEQKVEQKPSKRPKQKTLQTTIQVTIPIGSNYTLVGPSPPVSWHTTKNGLTELCNGNPILRHTCDGQNITLINVNATFEADYYGSNNNSESKHYRVKVFKQRKDQALLFRPLTTKGTTGGSTVNEQFALQQGNDKTNQNDEQIPSTT
# B11: HAdV-D39 E3/49K (Fc fusion)
# chain: KIDNEDVIGHWGKNITLVGPPEKPIEWHGPRVQLCDGSKILHPEFNHTCNEQNLTLIFLNNSFNGKYYGIRKDGFGMKQYTLKVIAPKASTRRPLSPPQQIDVRMGQNVTLVGPVDTPVNWHGPKHELCRGSQVIHPEVNHTCNEQNLTLLFVNYTFWGAYLGFNRYGTDRVHYEVTIIDGFKNAGQQKDETGQHNPSNKDRPNPKVKNPQRTKNTHKTNTQNKKDIEKDFRKGTNQTLVGPPGSKVDWYEGKNGDLVKLCDGKSGLKVSCNDQNITLINVNETYSGTYYGSNDEDHRQYKVTVYTIPRNETVKIQPHTTKGTTGGSTVNEQFALQQDNDRTNQNDEQIPSTT
# B12: HAdV-D43 E3/49K (Fc fusion)
# chain: QIEHEKQSVQWGKNITLVGPNDKPVEWHGPRDQLCKGKQILHPEFNHTCNEQNLTLLFVNNTFQGIYYGIRNDGRGMKQIQLTVVAPPASTRKPLSKPKQVNVQYGHNVTLEGPPGIPIDWLGPTNQLCKGKEILHPEINHTCNVQNLTLLFVNYTHRGAYFGFNKDGTDRHHYEVTILDGFTNAGQTKEESVSDKSKGKTSSKEKKTQKNNSQRNDDVKELDFPSGSNQTLVGPPGSKVDWYTTKNGDFTKLCDGLNGPKNLCNYQNLTLRNVSRQDEGTYFGSNEQSKHYRVTVYTKPRNQTKRIQPYTTKGTTKSTLGNHSFELQLADDQSNQQDQQIPSTT
# Molecular target: T1, SLAMF4 ECD (human, UniProt Q9BZW8 22-229)
# T1 chain: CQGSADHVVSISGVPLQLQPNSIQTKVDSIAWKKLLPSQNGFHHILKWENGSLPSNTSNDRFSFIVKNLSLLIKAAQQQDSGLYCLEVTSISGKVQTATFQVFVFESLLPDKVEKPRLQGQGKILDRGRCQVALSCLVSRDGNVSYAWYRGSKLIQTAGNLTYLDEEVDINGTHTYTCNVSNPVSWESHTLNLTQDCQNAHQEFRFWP
# Assay: SPR
row,Binder,Kd
1,B1,62000 pM
2,B2,44000 pM

# Molecular target: T2, CD45RO ECD (human)
# T2 chain: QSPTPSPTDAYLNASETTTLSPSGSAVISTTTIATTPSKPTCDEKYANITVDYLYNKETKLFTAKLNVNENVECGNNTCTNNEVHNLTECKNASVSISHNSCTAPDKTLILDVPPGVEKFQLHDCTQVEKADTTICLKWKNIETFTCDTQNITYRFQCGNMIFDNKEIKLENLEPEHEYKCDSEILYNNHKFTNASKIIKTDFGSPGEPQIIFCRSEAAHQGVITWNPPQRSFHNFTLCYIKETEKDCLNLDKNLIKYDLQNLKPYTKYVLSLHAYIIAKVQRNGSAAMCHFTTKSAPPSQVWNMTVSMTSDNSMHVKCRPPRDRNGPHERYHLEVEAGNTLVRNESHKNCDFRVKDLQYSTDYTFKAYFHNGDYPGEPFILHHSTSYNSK
# Assay: SPR
row,Binder,Kd
1,B3,60 pM
2,B4,330 pM
3,B5,380 pM
4,B6,80 pM
5,B7,110 pM
6,B8,60 pM
7,B9,80 pM
8,B10,10 pM
9,B11,390 pM
10,B12,380 pM
